Values of other authors, collected in PMC6047922.
pKd: −log10 of the molar value.

Target: ttRNH* Icore (Thermus thermophilus) (UniProt Q72IE1)
Assay: analytical ultracentrifugation

pKd: 3.82
Substance: ttRNH* Icore (from UniProt Q72IE1)
